From patent US20220040297A1 (Chugai, published 2022)
Numbering of substitutions follows the chain as printed.

B1: GLS3000 N28W (antibody, name in Kabat numbering, V domains shown)
VH: QVQLVESGGGVVQPGRSLRLSCAASGFTFSNAWMHWVRQAPGKGLEWVAQIKAKSNNYATYYAESVKGRFTISRDDSKNSLYLQMNSLKTEDTAVYYCRYVHYGAYYGVDAWGQGTTVTVSS
VL: DIVMTQSPLSLPVTPGEPASISCRSSQSLVHSWRNTYLHWYQQKPGQAPRLLIYKVSNRFSGVPDRFSGSGSGTDFTLKISRVEAEDVGVYYCGQGTQVPYTFGQGTKLEIK
notes: one-arm format as m2
B2: GLS3000 Q27D (antibody, name in Kabat numbering, V domains shown)
VH: B1 VH
VL: B1 VL with Q27D, W33N
notes: one-arm format as m2
B3: GLS3000 N53W (antibody, name in Kabat numbering, V domains shown)
VH: B1 VH
VL: B1 VL with W33N, N58W
notes: one-arm format as m2
B4: GLS3000 N53Q (antibody, name in Kabat numbering, V domains shown)
VH: B1 VH
VL: B1 VL with W33N, N58Q
notes: one-arm format as m2
B5: GLS3000 P95E (antibody, name in Kabat numbering, V domains shown)
VH: B1 VH
VL: B1 VL with W33N, P100E
notes: one-arm format as m2
B6: GLS3000 N53I (antibody, name in Kabat numbering, V domains shown)
VH: B1 VH
VL: B1 VL with W33N, N58I
notes: one-arm format as m2
B7: GLS3000 N30S (antibody, name in Kabat numbering, V domains shown)
VH: B1 VH
VL: B1 VL with W33N, N35S
notes: one-arm format as m2
B8: GLS3000 N30R (antibody, name in Kabat numbering, V domains shown)
VH: B1 VH
VL: B1 VL with W33N, N35R
notes: one-arm format as m2
B9: GLS3000 N30Y (antibody, name in Kabat numbering, V domains shown)
VH: B1 VH
VL: B1 VL with W33N, N35Y
notes: one-arm format as m2
B10: GLS3000 N53E (antibody, name in Kabat numbering, V domains shown)
VH: B1 VH
VL: B1 VL with W33N, N58E
notes: one-arm format as m2
B11: GLS3000 N30W (antibody, name in Kabat numbering, V domains shown)
VH: B1 VH
VL: B1 VL with W33N, N35W
notes: one-arm format as m2
B12: GLS3000 N53L (antibody, name in Kabat numbering, V domains shown)
VH: B1 VH
VL: B1 VL with W33N, N58L
notes: one-arm format as m2
B13: GLS3000 P95D (antibody, name in Kabat numbering, V domains shown)
VH: B1 VH
VL: B1 VL with W33N, P100D
notes: one-arm format as m2
B14: GLS3000 P95L (antibody, name in Kabat numbering, V domains shown)
VH: B1 VH
VL: B1 VL with W33N, P100L
notes: one-arm format as m2
B15: GLS3000 P95A (antibody, name in Kabat numbering, V domains shown)
VH: B1 VH
VL: B1 VL with W33N, P100A
notes: one-arm format as m2
B16: GLS3000 N30E (antibody, name in Kabat numbering, V domains shown)
VH: B1 VH
VL: B1 VL with W33N, N35E
notes: one-arm format as m2
B17: GLS3000 N30F (antibody, name in Kabat numbering, V domains shown)
VH: B1 VH
VL: B1 VL with W33N, N35F
notes: one-arm format as m2
B18: GLS3000 N53R (antibody, name in Kabat numbering, V domains shown)
VH: B1 VH
VL: B1 VL with W33N, N58R
notes: one-arm format as m2
B19: GLS3000 N30I (antibody, name in Kabat numbering, V domains shown)
VH: B1 VH
VL: B1 VL with W33N, N35I
notes: one-arm format as m2
B20: GLS3000 N30K (antibody, name in Kabat numbering, V domains shown)
VH: B1 VH
VL: B1 VL with W33N, N35K
notes: one-arm format as m2
B21: GLS3000 N53H (antibody, name in Kabat numbering, V domains shown)
VH: B1 VH
VL: B1 VL with W33N, N58H
notes: one-arm format as m2
B22: GLS3000 Q27E (antibody, name in Kabat numbering, V domains shown)
VH: B1 VH
VL: B1 VL with Q27E, W33N
notes: one-arm format as m2
B23: GLS3000 N30P (antibody, name in Kabat numbering, V domains shown)
VH: B1 VH
VL: B1 VL with W33N, N35P
notes: one-arm format as m2
B24: GLS3000 N53F (antibody, name in Kabat numbering, V domains shown)
VH: B1 VH
VL: B1 VL with W33N, N58F
notes: one-arm format as m2
B25: GLS3000 N30V (antibody, name in Kabat numbering, V domains shown)
VH: B1 VH
VL: B1 VL with W33N, N35V
notes: one-arm format as m2
B26: GLS3000 P95S (antibody, name in Kabat numbering, V domains shown)
VH: B1 VH
VL: B1 VL with W33N, P100S
notes: one-arm format as m2
B27: GLS3000 N53P (antibody, name in Kabat numbering, V domains shown)
VH: B1 VH
VL: B1 VL with W33N, N58P
notes: one-arm format as m2
B28: GLS3000 N53G (antibody, name in Kabat numbering, V domains shown)
VH: B1 VH
VL: B1 VL with W33N, N58G
notes: one-arm format as m2
B29: GLS3000 N53M (antibody, name in Kabat numbering, V domains shown)
VH: B1 VH
VL: B1 VL with W33N, N58M
notes: one-arm format as m2
B30: GLS3000 N28Y (antibody, name in Kabat numbering, V domains shown)
VH: B1 VH
VL: B1 VL with W33Y
notes: one-arm format as m2
B31: GLS3000 N30T (antibody, name in Kabat numbering, V domains shown)
VH: B1 VH
VL: B1 VL with W33N, N35T
notes: one-arm format as m2
B32: GLS3000 N30D (antibody, name in Kabat numbering, V domains shown)
VH: B1 VH
VL: B1 VL with W33N, N35D
notes: one-arm format as m2
B33: GLS3000 N30H (antibody, name in Kabat numbering, V domains shown)
VH: B1 VH
VL: B1 VL with W33N, N35H
notes: one-arm format as m2
B34: GLS3000 N53V (antibody, name in Kabat numbering, V domains shown)
VH: B1 VH
VL: B1 VL with W33N, N58V
notes: one-arm format as m2
B35: GLS3000 N53T (antibody, name in Kabat numbering, V domains shown)
VH: B1 VH
VL: B1 VL with W33N, N58T
notes: one-arm format as m2
B36: GLS3000 N53K (antibody, name in Kabat numbering, V domains shown)
VH: B1 VH
VL: B1 VL with W33N, N58K
notes: one-arm format as m2
B37: GLS3000 N53A (antibody, name in Kabat numbering, V domains shown)
VH: B1 VH
VL: B1 VL with W33N, N58A
notes: one-arm format as m2
B38: GLS3000 N30G (antibody, name in Kabat numbering, V domains shown)
VH: B1 VH
VL: B1 VL with W33N, N35G
notes: one-arm format as m2
B39: GLS3000 N53D (antibody, name in Kabat numbering, V domains shown)
VH: B1 VH
VL: B1 VL with W33N, N58D
notes: one-arm format as m2
B40: GLS3000 N53S (antibody, name in Kabat numbering, V domains shown)
VH: B1 VH
VL: B1 VL with W33N, N58S
notes: one-arm format as m2
B41: GLS3000 P95G (antibody, name in Kabat numbering, V domains shown)
VH: B1 VH
VL: B1 VL with W33N, P100G
notes: one-arm format as m2
B42: GLS3000 N30M (antibody, name in Kabat numbering, V domains shown)
VH: B1 VH
VL: B1 VL with W33N, N35M
notes: one-arm format as m2
B43: GLS3000 N30A (antibody, name in Kabat numbering, V domains shown)
VH: B1 VH
VL: B1 VL with W33N, N35A
notes: one-arm format as m2
B44: GLS3000 N30Q (antibody, name in Kabat numbering, V domains shown)
VH: B1 VH
VL: B1 VL with W33N, N35Q
notes: one-arm format as m2
B45: GLS3000 N53Y (antibody, name in Kabat numbering, V domains shown)
VH: B1 VH
VL: B1 VL with W33N, N58Y
notes: one-arm format as m2
B46: GLS3000 N30L (antibody, name in Kabat numbering, V domains shown)
VH: B1 VH
VL: B1 VL with W33N, N35L
notes: one-arm format as m2

Biological target: CD3ε homodimer protein (human, UniProt P07766 23-126, limits assumed)
Sequence (P07766 23-126 limits assumed): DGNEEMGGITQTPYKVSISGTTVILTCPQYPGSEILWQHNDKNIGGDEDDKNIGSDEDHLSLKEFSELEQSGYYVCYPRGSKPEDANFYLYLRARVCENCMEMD
Experiment: SPR, immobilized CD3ε homodimer;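 note: biacore T200 surface plasmon resonance at 25 °C, antibody variants flowed as analytes over amine-coupled CD3ε homodimer on a CM4 chip, variant binding amount divided by that of GLS3000 antibody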

Row | Binder | ratio of amounts bound (vs GLS3000)
1 | B1 | 0.41
2 | B2 | 0.85
3 | B3 | 0.81
4 | B4 | 0.77
5 | B5 | 0.39
6 | B6 | 0.5
7 | B7 | 0.29
8 | B8 | 1.86
9 | B9 | 1.04
10 | B10 | 0.54
11 | B11 | 0.99
12 | B12 | 0.56
13 | B13 | 0.24
14 | B14 | 0.24
15 | B15 | 0.63
16 | B16 | 0.44
17 | B17 | 1.1
18 | B18 | 1.58
19 | B19 | 0.61
20 | B20 | 1.65
21 | B21 | 1.18
22 | B22 | 0.88
23 | B23 | 0.31

Row | Binder | ratio of amounts bound (vs GLS3000)
24 | B24 | 0.69
25 | B25 | 0.61
26 | B26 | 0.43
27 | B27 | 0.81
28 | B28 | 0.76
29 | B29 | 0.62
30 | B30 | 0.26
31 | B31 | 0.29
32 | B32 | 0.34
33 | B33 | 0.98
34 | B34 | 0.56
35 | B35 | 0.56
36 | B36 | 1.08
37 | B37 | 0.61
38 | B38 | 0.47
39 | B39 | 0.34
40 | B40 | 0.69
41 | B41 | 0.37
42 | B42 | 0.8
43 | B43 | 0.5
44 | B44 | 0.87
45 | B45 | 0.67
46 | B46 | 0.7
